Assay results published in publication PMC9482650, “Quantitative fragmentomics allow affinity mapping of interactomes” (Nature Communications, 2022).
Positions count from the first letter of the chain named.

Key:
Assay in all cases: holdup assay
Parameters in all cases: key: below the threshold = too weak to quantify, mostly under pKd 3.1 to 4
[1] = target: T1, SNTG2, Q9NY99
T1 sequence (Q9NY99 68-166, limits assumed, looked up): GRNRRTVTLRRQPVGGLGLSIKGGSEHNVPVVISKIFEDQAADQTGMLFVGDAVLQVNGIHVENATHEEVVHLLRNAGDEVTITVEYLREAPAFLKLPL

[2] = target: T2, TIAM2, Q8IVF5
T2 sequence (Q8IVF5 885-986, limits assumed, looked up): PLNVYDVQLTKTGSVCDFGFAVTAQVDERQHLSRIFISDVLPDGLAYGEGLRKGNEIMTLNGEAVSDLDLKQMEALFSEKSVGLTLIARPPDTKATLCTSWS

[3] = target: T3, TX1BP3, O14907
T3 sequence (O14907 10-122, limits assumed, looked up): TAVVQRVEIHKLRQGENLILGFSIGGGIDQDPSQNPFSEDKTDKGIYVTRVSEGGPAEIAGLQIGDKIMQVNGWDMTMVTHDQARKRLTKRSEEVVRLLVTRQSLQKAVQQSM

[4] = target: T4, SNTG1, Q9NSN8
T4 sequence (Q9NSN8 52-150, limits assumed, looked up): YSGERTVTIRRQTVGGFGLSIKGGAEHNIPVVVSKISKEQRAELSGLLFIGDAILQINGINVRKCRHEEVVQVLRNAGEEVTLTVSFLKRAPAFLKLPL

[5] = target: T5, DLG3_1, Q92796
T5 sequence (Q92796 125-227, limits assumed, looked up): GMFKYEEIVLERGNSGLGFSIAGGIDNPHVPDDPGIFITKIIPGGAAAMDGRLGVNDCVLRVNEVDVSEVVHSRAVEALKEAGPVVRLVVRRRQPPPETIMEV

[6] = target: NHERF4_2, Q86UT5
NHERF4_2, Q86UT5, sequence (Q86UT5 220-308): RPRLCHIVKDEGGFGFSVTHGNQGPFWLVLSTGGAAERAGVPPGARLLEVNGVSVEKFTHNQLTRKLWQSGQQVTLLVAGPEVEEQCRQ

[7] = target: T6, SNTA1, Q13424
T6 sequence (Q13424 82-180, limits assumed, looked up): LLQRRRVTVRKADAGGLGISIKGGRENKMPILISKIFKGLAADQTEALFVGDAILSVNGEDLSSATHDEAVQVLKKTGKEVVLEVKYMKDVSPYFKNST

[8] = target: Inadl_1, Q8NI35
Inadl_1, Q8NI35, sequence (Q8NI35 113-229): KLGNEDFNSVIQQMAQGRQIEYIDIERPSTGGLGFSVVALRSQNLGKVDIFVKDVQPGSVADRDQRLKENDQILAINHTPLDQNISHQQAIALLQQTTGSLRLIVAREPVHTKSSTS

[9] = target: MAST2, Q6P0Q8
MAST2, Q6P0Q8, sequence (Q6P0Q8 1099-1202): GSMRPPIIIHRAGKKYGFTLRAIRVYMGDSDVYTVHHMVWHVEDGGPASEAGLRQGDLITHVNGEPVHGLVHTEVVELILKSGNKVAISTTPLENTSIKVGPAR

[10] = target: CASK, O14936
CASK, O14936, sequence (O14936 487-570): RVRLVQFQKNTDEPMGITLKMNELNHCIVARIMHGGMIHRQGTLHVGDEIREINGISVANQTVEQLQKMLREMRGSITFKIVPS

[11] = target: TJP1_2, Q07157
TJP1_2, Q07157, sequence (Q07157 181-274): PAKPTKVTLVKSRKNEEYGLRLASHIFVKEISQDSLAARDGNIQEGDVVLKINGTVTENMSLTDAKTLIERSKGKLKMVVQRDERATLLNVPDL

[12] = target: GORASP2, Q9H8Y8
[13] = target: T7, LIN7A, O14910
T7 sequence (O14910 103-200, limits assumed, looked up): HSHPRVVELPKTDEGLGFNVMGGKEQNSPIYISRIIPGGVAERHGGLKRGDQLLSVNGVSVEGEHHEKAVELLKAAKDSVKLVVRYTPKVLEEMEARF

[14] = target: GRID2IP_2, A4D2P6
GRID2IP_2, A4D2P6, sequence (A4D2P6 272-370): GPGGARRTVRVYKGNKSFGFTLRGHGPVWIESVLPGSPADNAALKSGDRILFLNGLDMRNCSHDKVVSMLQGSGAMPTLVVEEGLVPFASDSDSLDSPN

[15] = target: DLG5_1, Q8TDM6
DLG5_1, Q8TDM6, sequence (Q8TDM6 617-713): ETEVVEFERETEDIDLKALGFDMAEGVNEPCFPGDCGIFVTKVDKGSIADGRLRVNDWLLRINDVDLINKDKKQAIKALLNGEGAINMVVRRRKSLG

[16] = target: T8, DLG3_2, Q92796
T8 sequence (Q92796 221-321, limits assumed, looked up): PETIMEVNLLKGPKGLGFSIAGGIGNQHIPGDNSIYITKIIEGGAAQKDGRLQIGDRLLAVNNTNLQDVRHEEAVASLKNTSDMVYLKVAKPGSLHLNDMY

[17] = target: FRMPD4, Q14CM0
FRMPD4, Q14CM0, sequence (Q14CM0 67-160): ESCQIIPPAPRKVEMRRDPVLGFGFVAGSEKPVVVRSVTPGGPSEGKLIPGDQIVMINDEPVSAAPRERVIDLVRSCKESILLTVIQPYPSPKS

[18] = target: T9, LIN7B, Q9HAP6
T9 sequence (Q9HAP6 88-185, limits assumed, looked up): T7 sequence (O14910 103-200, limits assumed, looked up) with S2A, V20I, I35V, E42D, H65Q, K77Q, D78G, K89R

[19] = target: T10, RADIL, Q96JH8
T10 sequence (Q96JH8 971-1071, limits assumed, looked up): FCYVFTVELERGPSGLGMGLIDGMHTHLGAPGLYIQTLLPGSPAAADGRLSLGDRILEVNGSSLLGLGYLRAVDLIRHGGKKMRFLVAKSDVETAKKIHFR

[20] = target: ARHGEF12, Q9NZN5-2
ARHGEF12, Q9NZN5-2, sequence (Q9NZN5 other isoform, or with tags, fused parts or gaps): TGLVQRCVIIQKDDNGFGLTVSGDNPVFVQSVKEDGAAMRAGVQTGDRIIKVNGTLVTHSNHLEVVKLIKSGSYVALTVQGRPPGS

[21] = target: T11, PDZRN3_1, Q9UPQ7
T11 sequence (Q9UPQ7 244-349, limits assumed, looked up): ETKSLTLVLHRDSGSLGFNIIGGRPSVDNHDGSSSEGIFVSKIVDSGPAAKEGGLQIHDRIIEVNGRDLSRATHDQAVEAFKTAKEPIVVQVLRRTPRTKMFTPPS

[22] = target: PICK1, Q9NRD5
PICK1, Q9NRD5, sequence (Q9NRD5 17-115): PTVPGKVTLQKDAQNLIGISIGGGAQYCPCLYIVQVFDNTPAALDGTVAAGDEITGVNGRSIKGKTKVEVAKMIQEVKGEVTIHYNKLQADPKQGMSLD

[23] = target: MAGI1_1, Q96QZ7
MAGI1_1, Q96QZ7, sequence (Q96QZ7 1-106): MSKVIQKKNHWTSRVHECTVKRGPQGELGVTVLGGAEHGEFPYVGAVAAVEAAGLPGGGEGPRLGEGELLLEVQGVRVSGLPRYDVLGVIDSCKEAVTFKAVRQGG

[24] = target: T12, APBA2_1, Q99767
T12 sequence (Q99767 563-664, limits assumed, looked up): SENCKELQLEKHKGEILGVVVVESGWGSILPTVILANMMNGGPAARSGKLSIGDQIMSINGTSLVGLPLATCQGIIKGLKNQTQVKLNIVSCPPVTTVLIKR

[25] = plain residues with an end cap or a label only (N-terminal biotin on a linker: ado-ado)
[26] = plain residues with an end cap or a label only (N-terminal biotin on a linker: ahx)

QSGLYESEEL [MYOT, Q9UBF9]
pKd [1, 25]: below the threshold
pKd [2, 25]: 4.19
pKd [3, 25]: 3.85
pKd [4, 25]: below the threshold
pKd [5, 25]: below the threshold
pKd [6, 25]: below the threshold
pKd [7, 25]: below the threshold
pKd [8, 25]: below the threshold
pKd [9, 25]: 4.88
pKd [10, 25]: below the threshold
pKd [11, 25]: below the threshold
pKd [12, 25]: below the threshold
pKd [13, 25]: below the threshold
pKd [14, 25]: below the threshold
pKd [15, 25]: below the threshold
pKd [16, 25]: 4.21
pKd [17, 25]: below the threshold
pKd [18, 25]: 3.66
pKd [19, 25]: below the threshold
pKd [20, 25]: 3.63
pKd [21, 25]: below the threshold
pKd [22, 25]: below the threshold
pKd [23, 25]: below the threshold
pKd [24, 25]: below the threshold

QNTDDVQTSF [ACE2, Q9BYF1]
pKd [1, 26]: below the threshold
pKd [2, 26]: below the threshold
pKd [3, 26]: below the threshold
pKd [4, 26]: below the threshold
pKd [5, 26]: below the threshold
pKd [6, 26]: below the threshold
pKd [7, 26]: below the threshold
pKd [8, 26]: below the threshold
pKd [9, 26]: 5.13
pKd [10, 26]: below the threshold
pKd [11, 26]: below the threshold
pKd [12, 26]: below the threshold
pKd [13, 26]: below the threshold
pKd [14, 26]: below the threshold
pKd [15, 26]: below the threshold
pKd [16, 26]: 3.76
pKd [17, 26]: 3.67
pKd [18, 26]: below the threshold
pKd [19, 26]: below the threshold
pKd [20, 26]: 3.65
pKd [21, 26]: below the threshold
pKd [22, 26]: below the threshold
pKd [23, 26]: below the threshold
pKd [24, 26]: below the threshold

LPAVCYDIDI [PTTG2, Q9NZH5]
pKd [1, 25]: below the threshold
pKd [2, 25]: 3.87
pKd [3, 25]: 4.09
pKd [4, 25]: 3.64
pKd [5, 25]: below the threshold
pKd [6, 25]: below the threshold
pKd [7, 25]: below the threshold
pKd [8, 25]: below the threshold
pKd [9, 25]: 5
pKd [10, 25]: below the threshold
pKd [11, 25]: 4.32
pKd [12, 25]: 3.66
pKd [13, 25]: below the threshold
pKd [14, 25]: below the threshold
pKd [15, 25]: below the threshold
pKd [16, 25]: 4.09
pKd [17, 25]: below the threshold
pKd [18, 25]: 3.53
pKd [19, 25]: below the threshold
pKd [20, 25]: below the threshold
pKd [21, 25]: below the threshold
pKd [22, 25]: below the threshold
pKd [23, 25]: below the threshold
pKd [24, 25]: below the threshold
